From US20250333523A1 (Alector, published 2025)

T1: Avi/HisMsIL18BPd (recombinant mouse IL-18BP with Avi and poly-His tags) (mouse)
T1 sequence (chain, biotinylated with BirA on the Avi tag in some assays): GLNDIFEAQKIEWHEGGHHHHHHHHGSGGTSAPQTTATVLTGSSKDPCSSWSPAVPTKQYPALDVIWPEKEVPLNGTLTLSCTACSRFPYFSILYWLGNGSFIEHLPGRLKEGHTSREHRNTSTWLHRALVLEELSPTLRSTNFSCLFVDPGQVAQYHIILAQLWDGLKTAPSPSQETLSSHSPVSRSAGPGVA

T2: Avi/His-HuIL18BPa (recombinant human IL-18BP isoform A with Avi and poly-His tags) (human, biotinylated with BirA on the Avi tag in some assays)
T2 construct: also called human IL-18BP-Avi-His
T2 chain: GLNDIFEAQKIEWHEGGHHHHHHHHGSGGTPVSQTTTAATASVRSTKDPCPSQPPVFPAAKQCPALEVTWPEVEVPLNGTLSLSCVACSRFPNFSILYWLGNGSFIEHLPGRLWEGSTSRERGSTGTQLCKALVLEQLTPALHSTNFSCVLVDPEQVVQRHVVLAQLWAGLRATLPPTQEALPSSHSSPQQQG

T3: His/Avi-CynoIL18BP (recombinant cynomolgus IL-18BP with His and Avi tags) (cynomolgus monkey)
T3 construct: also called cynomolgus IL-18BP-Avi-His
T3 chain: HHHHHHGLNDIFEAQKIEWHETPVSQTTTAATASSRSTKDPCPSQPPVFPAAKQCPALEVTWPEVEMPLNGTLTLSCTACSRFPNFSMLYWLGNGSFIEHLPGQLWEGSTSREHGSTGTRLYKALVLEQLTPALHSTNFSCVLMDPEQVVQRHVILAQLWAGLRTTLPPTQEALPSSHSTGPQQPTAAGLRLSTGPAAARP

T4: Avi/HisMsIL18BPd (recombinant mouse IL-18BP with Avi and poly-His tags) (mouse, biotinylated with BirA on the Avi tag in some assays)
T4 construct: also called murine IL-18BP; IL-18BP-Avi-His (mouse)
T4 chain: T1 sequence (chain, biotinylated with BirA on the Avi tag in some assays)

T5: mouse IL-18BPd-human IgG Fc (R&D Systems, Cat. #122-BP-100) (mouse; human, UniProt Q9Z0M9 29-193)
T5 construct: Bought; also called mouse IL-18BPd-Fc Chimera
T5 sequence (looked up): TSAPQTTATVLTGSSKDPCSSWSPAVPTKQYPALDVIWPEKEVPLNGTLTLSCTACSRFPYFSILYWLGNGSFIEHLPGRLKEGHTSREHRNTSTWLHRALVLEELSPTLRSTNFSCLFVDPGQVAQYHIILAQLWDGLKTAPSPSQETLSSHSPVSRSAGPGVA

B1: anti-IL18BP antibody BP-08 (antibody, human IgG1, V domains shown)
VH: QVQLQQPGAELVKPGASVKLSCKVSGYTFTSYWMHWVKQRPGQGLEWIGMIDPNSDSSRYNEKFKNRATLTADKSSSTAFMQFSSLTSEDSAVYYCARSRLGQDYWGQGTTLTVSS
VL: DIVMTQSHKFMSTSVGDRVSITCKASQDVSTAVAWYQQKPGQSPKLLIYWASTRHTGVPDRFTGSESGTDYTLIISSVQAEDLALYYCQQHFSTPYTFGGGTKLEIK
B2: anti-IL18BP antibody BP-06 (antibody, human IgG1, V domains shown)
VH: QIQLQQSGPELVKPGASVKISCKASGYTFTDYYLNWVKQTPGQGLEWIGWIYPGSGNTKYTEKFKDKASLTVDTSSNTAYMQLSSLTSDDTAVYFCARRGVAWFAYWGQGTLVTVSA
VL: DIKMTQSPSSIYASLGERVTITCKASQDINSYLSWFQQKPGKSPKTLIHRANRLVDGVPSRFSGSGSGQDYSLTISSLEYEDMGIYYCLQHDDFPPTFGAGTNLELK

Key:
[1] = target: T1, Avi/HisMsIL18BPd (recombinant mouse IL-18BP with Avi and poly-His tags) (mouse); assay: ELISA, coated IL-18BP
[2] = target: T2, Avi/His-HuIL18BPa (recombinant human …); assay: blocking ELISA, competitor human IL-18
[3] = target: T3, His/Avi-CynoIL18BP (recombinant …); assay: blocking ELISA, competitor rhesus IL-18
[4] = target: T1, Avi/HisMsIL18BPd (recombinant mouse IL-18BP with Avi and poly-His tags) (mouse); assay: cell-based or functional assay
[5] = target: T3, His/Avi-CynoIL18BP (recombinant …); assay: cell-based or functional assay
[6] = target: T2, Avi/His-HuIL18BPa (recombinant human …); assay: ELISA, coated IL-18BP
[7] = target: T3, His/Avi-CynoIL18BP (recombinant …); assay: ELISA, coated IL-18BP
[8] = target: T2, Avi/His-HuIL18BPa (recombinant human …); assay: cell-based or functional assay
[9] = target: T2, Avi/His-HuIL18BPa (recombinant human …); assay: SPR Carterra LSA, IgG immobilized
[10] = target: T3, His/Avi-CynoIL18BP (recombinant …); assay: SPR Carterra LSA, IgG immobilized
[11] = target: T4, Avi/HisMsIL18BPd (recombinant mouse …); assay: ELISA, coated IL-18BP
[12] = target: T4, Avi/HisMsIL18BPd (recombinant mouse …); assay: cell-based or functional assay
[13] = target: T5, mouse IL-18BPd-human IgG Fc (R&D …); assay: blocking ELISA, competitor mouse IL-18
[14] = target: T4, Avi/HisMsIL18BPd (recombinant mouse …); assay: SPR, qualitative

| Binder | ELISA binding ratio (fold-change over background) (fold over background) [1] | blocking ELISA signal normalized to isotype control (=1) [2] | blocking ELISA signal normalized to isotype control (=1) [3] | Fold change of IFNγ at 10 µg/ml vs baseline, mouse splenocytes [4] [fold] | % of Max Gamma, human NK cells [5] [%] | EC50 of IFNγ release, human NK cells [5] [nM] | ELISA binding ratio (fold-change over background) [6] [fold over background] | ELISA binding ratio (fold-change over background) [7] [fold over background] | EC50 of IFNγ release, human PBMC [8] [nM] | Fold change of IFNγ at 10 µg/ml vs baseline, human PBMC [8] [fold] | Kd [9] [nM] | Kd [10] [nM] | ELISA binding ratio (fold-change over background) [11] [fold over background] | Fold change of IFNγ at 10 µg/ml vs baseline, mouse splenocytes [12] [fold] | blocking ELISA signal normalized to isotype control (=1) [13] | binding result [14] |
| --- | --- | --- | --- | --- | --- | --- | --- | --- | --- | --- | --- | --- | --- | --- | --- | --- |
| B1 | 35 | 0.133 ratio to isotype control | 0.478 ratio to isotype control | 0.75 | 58.4 | 19.2 | 38.8 | 41.5 | 2.01 | 5.19 | 6.9 | 41.4 |  |  |  |  |
| B2 |  | 0.174 ratio to isotype control | 0.378 ratio to isotype control |  | 75.8 | 8.07 | 42.1 | 44.3 | 1.23 | 10.9 |  |  | 1.2 | 1.11 | 0.971 ratio to isotype control | no binding |
